Reference: paper PMC10491434, “SPOP targets the immune transcription factor IRF1 for proteasomal degradation” (eLife, 2023)

Target: T1, wild-type interferon regulatory factor 1 (wtIRF1) (human, UniProt P10914 1-325)
T1 sequence (looked up): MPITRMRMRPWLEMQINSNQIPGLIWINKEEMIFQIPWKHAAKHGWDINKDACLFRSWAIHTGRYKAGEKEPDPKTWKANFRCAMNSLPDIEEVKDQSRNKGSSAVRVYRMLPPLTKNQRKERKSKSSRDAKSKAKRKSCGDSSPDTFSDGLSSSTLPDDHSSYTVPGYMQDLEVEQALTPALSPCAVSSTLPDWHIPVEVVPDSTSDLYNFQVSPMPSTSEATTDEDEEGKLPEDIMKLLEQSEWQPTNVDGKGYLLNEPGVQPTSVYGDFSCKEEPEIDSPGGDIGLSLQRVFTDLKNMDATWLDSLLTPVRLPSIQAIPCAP
Experiment: cell-based or functional assay

B1: Ollas-tagged wild-type speckle type BTB/POZ protein (wtSPOP) (natural protein, UniProt O43791 1-374, looked up)
chain: MSRVPSPPPPAEMSSGPVAESWCYTQIKVVKFSYMWTINNFSFCREEMGEVIKSSTFSSGANDKLKWCLRVNPKGLDEESKDYLSLYLLLVSCPKSEVRAKFKFSILNAKGEETKAMESQRAYRFVQGKDWGFKKFIRRDFLLDEANGLLPDDKLTLFCEVSVVQDSVNISGQNTMNMVKVPECRLADELGGLWENSRFTDCCLCVAGQEFQAHKAILAARSPVFSAMFEHEMEESKKNRVEINDVEPEVFKEMMCFIYTGKAPNLDKMADDLLAAADKYALERLKVMCEDALCSNLSVENAAEILILADLHSADQLKTQAVDFINYHASDVLETSGWKSMVVSHPHLVAEAYRSLASAQCPFLGPPRKRLKQS
Q: Which “fold decrease in IRF1-driven ISRE luciferase reporter activity in HEK-293T cells with SPOP co-expression (dual luciferase assay)” value does the source give for B1 here?
A: 11 fold
